The labels stand for the following.
B1: TPR 5TU (parent)
chain: GGAUCUUCUCGAUCUAACAAAAAAGACAAAUCUGCCACAAAGCUUGAGAGCAUCUUCGGAUGCAGAGGCGGCAGCCUUCGGUGGCGCGAUAGCGCCAACGUUCUCAACUAUGACACGCAAAACGCGUGCUCCGUUGAAUGGAGUUUAUCAUG

This sample holds only a part of the variants without activity.

The variants in this series derive from B1. Nature of the series: polymerase ribozyme fitness, log enrichment relative to wild type (log ratio); higher = more active; in vitro selection for triplet polymerase activity. The method, boiled down: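 The heterodimeric triplet polymerase ribozyme's subunits were each mutagenized into PCR-built libraries and transcribed. Every library was selected once, in triplicate, by annealing with a biotinylated primer, the partner subunit and triplets, incubating frozen at −7 °C, gel-excising extended constructs, capturing on streptavidin beads and running RT-PCR. Input and output libraries were Illumina-sequenced, with genotypes kept only at ≥10 input reads and ≥1 read per output. Fitness, from inverse-variance-weighted replicate averages, is the base-2 logarithm of genotype enrichment over wild-type enrichment.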
As to GGAUCUUCUCGAUCUAACAAAAAAGACAAAUCUGCCACAGAGCUUGAGAGCAUCUACGGAUGCAGAGGCGGCAGCCUUCGGUGGCACGAUAGCGCCAACGUUCUCAACUAUGACACGCAAAACGCGUGCUCCGUUGAAUGGAGUUUAUCAUG [A40G U56A G86A], the “polymerase ribozyme fitness (log ratio)” value is -3.13.
Regarding GGAUCUUCUCGAUCUGACAAAAAAGACAAAUCUGCCACAAAGCUUGAGAGCAUCUUCGGAUGCAGAGGCGGCAGCCUUCGGUGGCGCGAUAGCGCAAACGUUCUCAACUAUGACACGCAAAACGCGUGCUCCGUUGAAUGGAGUUUAUCAUG [A16G C96A], the “polymerase ribozyme fitness (log ratio)” value is -0.881.
Then GGAUCUUCUCGAUCUAAUAAAAAAGACAAAUCUGACACUAAGCUUGAGAUCAUCGUCGGAUGCAGAGGCGGCAGCCUUCGGUGGCGCGAUAGCGCCAACGUUCUCAAUUAUGACACGCAAAACGCGUGCUCCGUUGAAUGGAGUUUAUCAUG [C18U C35A A39U G50U U55G C108U], with not above -4.2; and GGAUCUUCUCGAUCUAACAAAUAAGACAAAUCUGCCAAAAAGCUUGAGAUCAUCUACGGAUGCAGAGGCGGCAGGCUUCGGUGGCGCGAUAGUGCCAACGUUCUCAACUAUGACACGCAAAACGCGUGCUCCGAUGAAUGGAGUUUAUCAUG [A22U C38A G50U U56A C75G C93U U134A], with not above -4.2; and GGAUCUUCUCGAUCUAACAAAAAAGACAAAUCUGCCACAAAGCUUGAGAGCAUCUUCGGAUGCAGAGACGGCAGCCUUCGGUGGCGCGAUAGCGCAAAUGUUCUCAACUGUGACACGCAAAACGCGUGCUCCGUUGAAUGGAGUCUAUCAUG [G68A C96A C99U A110G U145C], with not above -4.2.
Then GGAUCUUCUCGAUCUAACAAAAAAGACAAAUCUGCCACAAAGCUUGAGAGCAUCUUCGGAUGCAGAGGCGGCAGCCUUCGGUGGCGCGAUAGCGCCAACGUUCUCAACUAUGACAAGCAAAACGCGUGCUCCGUUGAAUGGGGUUUAUCAUG [C116A A142G], with 0.244; and GGAUCUUCUCGAUCUAACAAAAAAGACAAAUCUGCCACUAAGAAUGAGAGCAUCUGCGCAUGCAGAGGCGGCAGCCUUCGGUGGCGCGAUAGCACCAACGUUGUCAACUAUGACACGCAAAACGCGUGCUCCGUUGAAUGGAGAUUAUCAUG [A39U C43A U44A U56G G59C G94A C103G U144A], with not above -4.2; and GGAUCUUCUCGAUCUAACAAAAAAGACAAAUCUGCUACAAAGCUUGAGAGCAUCUUCGAAUGCAGAGGCGGCAGCCUUCGGUGGCGCGAUAGCUCCAACGUUCUCACCUAUGACACGCAAAACGCGUGCUCCCUUGAAUUGAGGUUAUCAUG [C36U G59A G94U A107C G133C G140U U144G], with not above -4.2.
As for GGAUCUUCUCGAUCUAACAAAAAAGACAAAUCUGCCACAAAGCUUGAGAGCAUCUUCGGAUGCAGAGGCGGCAGCCUUCGGUGGCGCUAUAGCGCCAAAGUUCUCAACUAUGACACGCAAAACGCGUGCUCCGUUGAAUGGAGUUCAUCAUG [G88U C99A U146C], the “polymerase ribozyme fitness (log ratio)” value is not above -4.2.
The value for GGAUGUUCUCGAUCUAACAAAAAAGACAAAUCUGCCACAAAGCUUGAGAGCAUCUUCGGAUGCAGAGGCGGCAGCCUUCGGUGGUGCGAUAGCGCCAACGUUCUCAACUAUGACACGCAAAACGCGUGCUCCGUUGAAUGGAGUUUAUCAUG [C5G C85U] was -1.17; that for GGAUCUUCUCGAUCUAACAUAAAAGAUAAAUCUGCCACAAAGCUUCAGAGCAUCUUCGGAUGCAGAGGCGGCAGCCUUCGGUGGCGCGAUAGCGUCAACGUUCUCAACUAUGACACGCAAAACGCGUGCUCCGUUGAAUGGAGUUUAUCAUG [A20U C27U G46C C95U] was -3.76.
For GGAUCUUCUCGAUCUCACAAAAAAGACAAAUCUGGCACAAAGCUUGAGAGCAUCUUCGGAUGCAGCGGCGACAGCCUUCGGCGGCGAGAUAGCGCCAACGUUCUCAACUAUGACACGCAAAACGCGUGCUCCGUUGAAUGGAGUUUAUCAUG [A16C C35G A66C G71A U82C C87A], the “polymerase ribozyme fitness (log ratio)” value was not above -4.2.
Then GGAUCUUCUCGAUCUAACAAAAAAGACAAGUCUGCCACAAAGCUUGAGAGCAUCUUCGGAUGCAGAGGCGGCAGCCUUCGGUGGCGCGAUAGCGCCAACGUUCUCAACUAUGACACGCAAAAUGCGUGCUCCUUUGAAUGGAGUUUAUGAUG [A30G C123U G133U C149G], with not above -4.2; and GGAUCUUCUCGAUCUAACAAAAAAGACAAAUCUGCCGCAAAGCUUGAGAGCAUCUUCGGAUGCAGAGGCGGCAGCCUUCGGUGGCGCGAUAGCGCCAACGUUCUCAACUAUGACACGCAAAACGCGUGCUCCGUUGAAUGUAGUGUAUCAUG [A37G G141U U145G], with -3.34; and GGAUCUUCUCGAUCUAACAAAAAAGACAAAUCUGCCACAAAGCUUGAGAGCAUCUUCGGAUGCAGAGGCAGCAGCCUUCGGUGGCGCGAUAGCGCCAACGUUCUCAACUAUGACACGCAAAACCCGUGCUCCGUUGAAUGGAGCUUAUCAUG [G70A G124C U144C], with not above -4.2.
The value for GGAUCUUCUCGAUCUAACAACAAAGACAAAUCUGCCACAAAGCUUGAGAGCAUCUUCGGAUGCAGAGGCGGCAGCCUUCGGUGGCGAGAUAGCGCCAACGUUCUCAACUAUGACACGCAAAACGCGUGCUCCGUUGAAUGCAGUUUAUCAUG [A21C C87A G141C] was not above -4.2.
The value for GGAUCUUCUCGAUCUAACAAAUAAGACAAAUCUGCCACAAAGCUUGAGAGCAUCUUCGGAUGCAGAGGCUGCAGCCUUCGGUGGCGAGAUAGCGCCAACGUUCUCAACUAUGACACGCUAAACGCGUGCUCCGUUGAAUGGAGUUUAUCAUG [A22U G70U C87A A119U] was not above -4.2; that for GGAUCUUCUCGAUCUACAAAAAAAGACAAAUCAGCCACAAAGCUUGAGAGCAUCUUCGGAUGCAGAGGCGGCAGCCUUCCGUGGCGAGAUAGCGCCAACGUUCUCAAAUAUGACACGCAAAACGCGUGCUCCGUUGAAUGGAGUUUAUCAUC [A17C C18A U33A G80C C87A C108A G152C] was not above -4.2; that for GGAUCUUCUCGAUCUAACAAAAAAGACUAAUCUGCCACAAUGCUUGAGAGCAUCUUCGGAUGCAGAGGCGGCAGCCUUCGGUGGCGCGAUAGUGCCAACGUUCUCAACUAUGACACGCAAAACGCGUGCUCCGUUGAAUGGAGCUUAUCAUG [A28U A41U C93U U144C] was -4.14.
